B1: IpaH7.8 protein (residues 23–565) (enzyme)
chain: SNEHYLRILTEWEKNSSPGEERGIAFNRLSQCFQNQEAVLNLSDLNLTSLPELPKHISALIVENNKLTSLPKLPAFLKELNADNNRLSVIPELPESLTTLSVRSNQLENLPVLPNHLTSLFVENNRLYNLPALPEKLKFLHVYYNRLTTLPDLPDKLEILCAQRNNLVTFPQFSDRNNIRQKEYYFHFNQITTLPESFSQLDSSYRINISGNPLSTRVLQSLQRLTSSPDYHGPQIYFSMSDGQQNTLHRPLADAVTAWFPENKQSDVSQIWHAFEHEEHANTFSAFLDRLSDTVSARNTSGFREQVAAWLEKLSASAELRQQSFAVAADATESCEDRVALTWNNLRKTLLVHQASEGLFDNDTGALLSLGREMFRLEILEDIARDKVRTLHFVDEIEVYLAFQTMLAEKLQLSTAVKEMRFYGVSGVTANDLRTAEAMVRSREENEFTDWFSLWGPWHAVLKRTEADRWAQAEEQKYEMLENEYSQRVADRLKASGLSGDADAEREAGAQVMRETEQQIYRQLTDEVLALRLSENGSRLHHS
notes: IpaH7.8, type III secretion effector and E3 ubiquitin ligase of Shigella flexneri; residues 23-565; synthesized fragment; Limits 23-565 are stated for the SEC experiment; source: E. coli BL21 (DE3), purified (Ni-NTA, anion exchange, SEC); not shown: His, N-terminal, cleaved

Assays:
GSDMB (residues 1-411) [1] = target: T1, GSDMB (residues 1-411) (human, UniProt Q8TAX9-1 1-411); experiment: ITC; 500 mM NaCl
T1 chain: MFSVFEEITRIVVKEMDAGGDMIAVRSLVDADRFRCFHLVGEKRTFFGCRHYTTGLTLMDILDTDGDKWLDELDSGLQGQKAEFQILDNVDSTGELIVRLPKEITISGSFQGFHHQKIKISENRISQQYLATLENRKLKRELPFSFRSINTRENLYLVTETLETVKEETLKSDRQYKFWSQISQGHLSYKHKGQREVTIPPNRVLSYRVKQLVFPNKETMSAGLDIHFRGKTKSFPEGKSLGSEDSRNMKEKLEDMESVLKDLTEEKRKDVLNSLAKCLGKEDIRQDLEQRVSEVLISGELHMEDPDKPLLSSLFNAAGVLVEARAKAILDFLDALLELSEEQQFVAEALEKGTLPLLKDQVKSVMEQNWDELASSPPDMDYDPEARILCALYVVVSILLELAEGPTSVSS

GSDMB (residues 1-411) [2] = target: T1, GSDMB (residues 1-411); experiment: ITC
GSDMB (residues 1-411) [3] = target: T2, GSDMB (residues 1-411) (human, UniProt Q8TAX9-1 1-411); experiment: ITC; MicroCal PEAQ-ITC, 25 °C; IpaH7.8 proteins injected into the cell containing GSDMB or GSDMD proteins; 25 mM Tris-HCl pH 8.0, 150 mM NaCl unless otherwise stated (one titration of IpaH7.8 into GSDMB in a high salt buffer); settings: both partners purified
T2 construct: residues 1-411; For the crystal the complex was obtained by co-transforming the GSDMB and IpaH7.8 plasmids; limits 1-411 are stated for the crystallised protein; also called gasdermin B; WT GSDMB; source: E. coli BL21 (DE3), purified (Ni-NTA, anion exchange, SEC); not shown: His, N-terminal, cleaved; MBP, N-terminal, cleaved
T2 sequence: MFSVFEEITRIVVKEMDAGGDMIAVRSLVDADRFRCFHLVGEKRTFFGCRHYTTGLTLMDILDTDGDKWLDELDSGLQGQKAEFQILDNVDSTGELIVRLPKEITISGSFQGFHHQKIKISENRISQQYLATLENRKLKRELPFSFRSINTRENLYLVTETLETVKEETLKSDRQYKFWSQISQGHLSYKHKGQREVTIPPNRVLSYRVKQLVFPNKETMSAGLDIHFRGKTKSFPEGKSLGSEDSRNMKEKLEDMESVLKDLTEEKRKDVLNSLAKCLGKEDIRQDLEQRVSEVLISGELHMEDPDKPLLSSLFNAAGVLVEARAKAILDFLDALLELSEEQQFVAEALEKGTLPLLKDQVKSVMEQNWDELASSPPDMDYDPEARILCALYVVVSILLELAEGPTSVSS

[4] = target: B1; experiment: as above; settings: both partners purified

| Binder | Kd (GSDMB (residues 1-411) [1]) [nM] | Kd (GSDMB (residues 1-411) [2]) [nM] | binding affinity in a high salt buffer against that in the standard buffer (GSDMB (residues 1-411) [3]) [fold] | binding result [4] |
| --- | --- | --- | --- | --- |
| B1 | 163 | 94 | 0.5 | – |
| human GSDMD (natural protein, also called hGSDMD; WT hGSDMD; source: E. coli BL21 (DE3), purified (same protocol as GSDMB); not shown: His, N-terminal, cleaved; MBP, N-terminal, cleaved) MGSAFERVVRRVVQELDHGGEFIPVTSLQSSTGFQPYCLVVRKPSSSWFWKPRYKCVNLSIKDILEPDAAEPDVQRGRSFHFYDAMDGQIQGSVELAAPGQAKIAGGAAVSDSSSTSMNVYSLSVDPNTWQTLLHERHLRQPEHKVLQQLRSRGDNVYVVTEVLQTQKEVEVTRTHKREGSGRFSLPGATCLQGEGQGHLSQKKTVTIPSGSTLAFRVAQLVIDSDLDVLLFPDKKQRTFQPPATGHKRSTSEGAWPQLPSGLSMMRCLHNFLTDGVPAEGAFTEDFQGLRAEVETISKELELLDRELCQLLLEGLEGVLRDQLALRALEEALEQGQSLGPVEPLDGPAGAVLECLVLSSGMLVPELAIPVVYLLGALTMLSETQHKLLAEALESQTLLGPLELVGSLLEQSAPWQERSTMSLPPGLLGNSWGEGAPAWVLLDECGLELGEDTPHVCWEPQAQGRMCALYASLALLSGLSQEPH | – | – | – | binds |
| hGSDMD S124R (natural protein, human, UniProt P57764 1-484, looked up, GSDMD, human, isoform 1 of UniProtKB P57764; construct as m34; also called hGSDMD bearing the S124R mutation; source: E. coli BL21 (DE3), purified (same protocol as GSDMB); not shown: His, N-terminal, cleaved; MBP, N-terminal, cleaved) MGSAFERVVRRVVQELDHGGEFIPVTSLQSSTGFQPYCLVVRKPSSSWFWKPRYKCVNLSIKDILEPDAAEPDVQRGRSFHFYDAMDGQIQGSVELAAPGQAKIAGGAAVSDSSSTSMNVYSLRVDPNTWQTLLHERHLRQPEHKVLQQLRSRGDNVYVVTEVLQTQKEVEVTRTHKREGSGRFSLPGATCLQGEGQGHLSQKKTVTIPSGSTLAFRVAQLVIDSDLDVLLFPDKKQRTFQPPATGHKRSTSEGAWPQLPSGLSMMRCLHNFLTDGVPAEGAFTEDFQGLRAEVETISKELELLDRELCQLLLEGLEGVLRDQLALRALEEALEQGQSLGPVEPLDGPAGAVLECLVLSSGMLVPELAIPVVYLLGALTMLSETQHKLLAEALESQTLLGPLELVGSLLEQSAPWQERSTMSLPPGLLGNSWGEGAPAWVLLDECGLELGEDTPHVCWEPQAQGRMCALYASLALLSGLSQEPH | – | – | – | binds |
| N-terminal LRR domain (residues 23–264) of IpaH7.8 (domain or fragment) SNEHYLRILTEWEKNSSPGEERGIAFNRLSQCFQNQEAVLNLSDLNLTSLPELPKHISALIVENNKLTSLPKLPAFLKELNADNNRLSVIPELPESLTTLSVRSNQLENLPVLPNHLTSLFVENNRLYNLPALPEKLKFLHVYYNRLTTLPDLPDKLEILCAQRNNLVTFPQFSDRNNIRQKEYYFHFNQITTLPESFSQLDSSYRINISGNPLSTRVLQSLQRLTSSPDYHGPQIYFSMSD | – | 90 | – | – |

— publication PMC9813358, “Insights into the GSDMB-mediated cellular lysis and its targeting by IpaH7.8” (Nature Communications, 2023)
